Experimental data published in US20050226876A1 (Hoffmann-La Roche, published 2005).

Legend:
[1] = target: T1, Fcγ receptor on human NK cells (FcγRIII) (human, UniProt P08637 17-254); test: FACS on NK cells from human blood
T1 construct: whole, on cells; also called FcγR presented on NK cells

[2] = target: T2, human complement factor C1q (human, UniProt P02745 23-245; P02746 28-253; P02747 29-245); test: C1q ELISA, antibody coated; background OD405 0.079
T2 construct: also called Clq
Description: (§1) In principle, the ELISA plate is coated with concentration ranges of the antibody, to which human C1q or human pooled serum, as a source of C3, is added. C1q or […] binding is detected by an antibody directed against human C1q or […] followed by a peroxidase-labeled conjugate.

[3] = target: T3, human complement factor C3 (from human pooled serum) (human, UniProt P01024 23-1663, limits assumed); test: C3 ELISA, antibody coated, human pooled serum; background OD405 0.098
T3 construct: The ELISA detects C3 (C3c) deposited on the coated antibody out of serum; also called C3c
T3 sequence (P01024 23-1663 limits assumed): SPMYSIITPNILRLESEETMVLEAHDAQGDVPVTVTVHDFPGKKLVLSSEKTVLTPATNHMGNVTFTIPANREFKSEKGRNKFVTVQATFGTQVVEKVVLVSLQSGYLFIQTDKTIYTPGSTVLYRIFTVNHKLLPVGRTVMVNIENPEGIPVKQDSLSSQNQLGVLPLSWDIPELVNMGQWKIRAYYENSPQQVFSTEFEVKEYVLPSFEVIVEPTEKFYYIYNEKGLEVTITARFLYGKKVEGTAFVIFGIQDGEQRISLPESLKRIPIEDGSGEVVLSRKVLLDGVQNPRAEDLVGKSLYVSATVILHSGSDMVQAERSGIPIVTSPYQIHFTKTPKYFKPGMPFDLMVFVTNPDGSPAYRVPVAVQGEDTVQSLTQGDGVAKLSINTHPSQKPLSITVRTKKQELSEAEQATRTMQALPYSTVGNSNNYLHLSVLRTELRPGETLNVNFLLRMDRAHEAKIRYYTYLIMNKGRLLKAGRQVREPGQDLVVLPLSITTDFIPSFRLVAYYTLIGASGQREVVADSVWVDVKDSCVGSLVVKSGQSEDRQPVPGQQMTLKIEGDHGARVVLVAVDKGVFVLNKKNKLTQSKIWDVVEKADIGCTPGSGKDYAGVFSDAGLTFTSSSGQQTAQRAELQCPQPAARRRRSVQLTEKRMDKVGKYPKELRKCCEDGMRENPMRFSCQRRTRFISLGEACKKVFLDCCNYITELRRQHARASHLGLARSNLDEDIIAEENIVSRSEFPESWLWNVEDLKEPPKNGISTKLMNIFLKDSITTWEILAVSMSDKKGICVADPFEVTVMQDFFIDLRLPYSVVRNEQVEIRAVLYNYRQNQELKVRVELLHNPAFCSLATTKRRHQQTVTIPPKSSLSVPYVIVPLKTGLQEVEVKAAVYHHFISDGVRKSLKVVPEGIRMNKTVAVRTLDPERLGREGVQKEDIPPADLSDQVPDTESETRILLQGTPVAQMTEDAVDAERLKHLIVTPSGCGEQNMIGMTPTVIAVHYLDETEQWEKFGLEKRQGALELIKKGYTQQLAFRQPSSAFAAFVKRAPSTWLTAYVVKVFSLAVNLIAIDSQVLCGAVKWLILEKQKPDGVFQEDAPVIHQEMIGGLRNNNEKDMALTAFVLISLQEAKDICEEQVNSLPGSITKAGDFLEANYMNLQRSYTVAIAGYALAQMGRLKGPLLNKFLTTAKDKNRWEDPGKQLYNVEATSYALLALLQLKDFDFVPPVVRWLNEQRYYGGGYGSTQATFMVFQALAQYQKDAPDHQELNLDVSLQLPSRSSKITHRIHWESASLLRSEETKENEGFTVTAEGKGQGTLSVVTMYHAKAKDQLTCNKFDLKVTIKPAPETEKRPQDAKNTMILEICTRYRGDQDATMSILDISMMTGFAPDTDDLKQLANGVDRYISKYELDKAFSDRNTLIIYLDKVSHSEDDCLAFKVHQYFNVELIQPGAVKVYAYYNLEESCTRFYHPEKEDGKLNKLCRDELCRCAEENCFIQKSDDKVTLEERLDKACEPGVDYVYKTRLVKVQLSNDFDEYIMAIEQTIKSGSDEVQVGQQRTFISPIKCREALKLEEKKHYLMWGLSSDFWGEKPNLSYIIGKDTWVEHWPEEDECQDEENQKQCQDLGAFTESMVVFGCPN
Description: as §1

[4] = target: T4, E-selectin on E-selectin-CHO transfectants (UniProt P16581 22-610, limits assumed); test: cell-based ELISA on E-selectin-CHO transfectants, OD405
T4 construct: whole, on cells; also called E-selectin-CHO cells; E-selectin transfectants
T4 sequence (looked up): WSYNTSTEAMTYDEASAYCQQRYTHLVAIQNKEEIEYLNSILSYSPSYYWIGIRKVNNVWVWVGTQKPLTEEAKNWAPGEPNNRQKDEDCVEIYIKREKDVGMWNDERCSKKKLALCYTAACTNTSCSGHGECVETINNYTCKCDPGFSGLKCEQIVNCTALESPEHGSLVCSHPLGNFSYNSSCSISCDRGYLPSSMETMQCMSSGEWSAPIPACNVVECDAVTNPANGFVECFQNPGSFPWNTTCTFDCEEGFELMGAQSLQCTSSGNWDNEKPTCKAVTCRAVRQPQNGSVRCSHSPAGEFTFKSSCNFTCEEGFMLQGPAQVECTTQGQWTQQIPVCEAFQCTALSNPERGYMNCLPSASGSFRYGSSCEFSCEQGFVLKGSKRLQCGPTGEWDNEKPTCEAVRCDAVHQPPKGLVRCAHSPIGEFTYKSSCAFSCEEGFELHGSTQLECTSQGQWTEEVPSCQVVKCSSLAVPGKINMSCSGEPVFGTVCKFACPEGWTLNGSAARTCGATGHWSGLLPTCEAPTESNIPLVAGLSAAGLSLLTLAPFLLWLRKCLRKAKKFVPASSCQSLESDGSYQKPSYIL
Description: (§2) In the cell-based ELISA P— and E-selectin-CHO-transfectants, after detaching the cells with cell-dissociation solution (Sigma C5914), were seeded into each well of 96 well plates (TC Microwell F96 Nunc 167008) adjusted to 100,000 cells/well and cultivated in respective media overnight at 37° C. (medium for P— CHO-transfectants: DMEM+10% FCS+2 mM Glutamine+Penicillin 100 U/ml/Streptomycin 100 μg/ml; medium for E-selctin transfecttants: HAM F-12+10% FCS+2 mM Glutamine+Penicillin 100 U/ml/Streptomycin 100 μg/ml+0.1% Fungizone+100 μg/ml Neomycin). […] After washing the wells (4 times), the bound antibodies were detected using the same steps as mentioned above for the cell-free ELISA.

[5] = target: T5, P-selectin on P-selectin-CHO transfectants (human, UniProt P16109 42-830); test: cell-based ELISA on P-selectin-CHO transfectants, OD405
T5 construct: whole, on cells; not restated for the transfectant; also called P-selectin-CHO cells; P-selectin CHO cells
T5 sequence (looked up): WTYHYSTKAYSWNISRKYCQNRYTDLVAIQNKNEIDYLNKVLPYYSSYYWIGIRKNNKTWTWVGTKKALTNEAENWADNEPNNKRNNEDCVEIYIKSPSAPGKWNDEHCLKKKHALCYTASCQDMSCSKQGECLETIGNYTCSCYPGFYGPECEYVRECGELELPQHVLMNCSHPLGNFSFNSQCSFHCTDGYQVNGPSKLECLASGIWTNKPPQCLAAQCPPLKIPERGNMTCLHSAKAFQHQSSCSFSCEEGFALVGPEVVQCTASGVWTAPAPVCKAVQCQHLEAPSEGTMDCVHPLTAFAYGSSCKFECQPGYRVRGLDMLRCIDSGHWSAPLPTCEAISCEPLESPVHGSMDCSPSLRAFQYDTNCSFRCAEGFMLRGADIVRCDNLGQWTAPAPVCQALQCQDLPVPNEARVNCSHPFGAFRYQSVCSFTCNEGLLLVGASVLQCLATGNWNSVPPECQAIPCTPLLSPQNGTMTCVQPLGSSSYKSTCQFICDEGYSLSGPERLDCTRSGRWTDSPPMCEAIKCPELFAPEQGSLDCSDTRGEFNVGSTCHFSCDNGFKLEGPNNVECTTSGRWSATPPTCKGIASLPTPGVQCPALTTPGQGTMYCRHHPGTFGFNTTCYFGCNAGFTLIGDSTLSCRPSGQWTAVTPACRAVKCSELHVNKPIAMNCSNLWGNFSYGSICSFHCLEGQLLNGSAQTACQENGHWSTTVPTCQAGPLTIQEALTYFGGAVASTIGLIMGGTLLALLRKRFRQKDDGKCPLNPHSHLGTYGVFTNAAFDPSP
Description: as §2

[6] = target: T2, human complement factor C1q; test: C1q ELISA, antibody coated 0.16-20 µg/ml
Description: as §1

T2 sequence (P02745 23-245 limits assumed, chain 1 of 3): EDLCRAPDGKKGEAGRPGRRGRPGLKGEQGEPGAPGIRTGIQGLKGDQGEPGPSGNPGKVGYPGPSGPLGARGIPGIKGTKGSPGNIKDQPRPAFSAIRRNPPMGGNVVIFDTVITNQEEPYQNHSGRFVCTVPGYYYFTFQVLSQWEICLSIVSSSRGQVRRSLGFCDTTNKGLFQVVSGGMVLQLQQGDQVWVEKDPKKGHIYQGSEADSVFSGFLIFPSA
T2 sequence (P02746 28-253 limits assumed, chain 2 of 3): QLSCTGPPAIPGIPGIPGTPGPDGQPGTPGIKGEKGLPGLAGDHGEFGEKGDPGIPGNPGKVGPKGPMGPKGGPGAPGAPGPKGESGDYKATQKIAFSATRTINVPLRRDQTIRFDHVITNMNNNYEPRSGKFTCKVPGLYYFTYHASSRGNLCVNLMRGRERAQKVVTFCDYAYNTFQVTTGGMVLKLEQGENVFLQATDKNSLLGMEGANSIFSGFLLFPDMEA
T2 sequence (P02747 29-245 limits assumed, chain 3 of 3): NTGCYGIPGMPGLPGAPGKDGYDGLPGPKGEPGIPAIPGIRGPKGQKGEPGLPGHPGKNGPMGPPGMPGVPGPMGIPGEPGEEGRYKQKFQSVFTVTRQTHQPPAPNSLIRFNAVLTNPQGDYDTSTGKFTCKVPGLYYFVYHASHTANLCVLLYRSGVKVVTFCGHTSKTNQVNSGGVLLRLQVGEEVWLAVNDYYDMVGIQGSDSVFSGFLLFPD
T1 sequence (P08637 17-254): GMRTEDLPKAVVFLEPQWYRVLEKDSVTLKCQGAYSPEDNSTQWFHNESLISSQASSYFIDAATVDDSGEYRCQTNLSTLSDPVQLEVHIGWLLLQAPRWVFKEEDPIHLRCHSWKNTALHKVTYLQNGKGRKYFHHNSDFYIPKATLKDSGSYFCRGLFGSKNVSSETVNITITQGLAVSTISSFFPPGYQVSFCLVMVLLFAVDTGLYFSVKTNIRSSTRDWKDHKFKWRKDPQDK

- binding result [1]: no binding (tested: 10 µg/ml)
- Bmax (OD405 at 10 µg/ml) [2]: 0.0119 OD405
- Bmax (OD405 at 10 µg/ml) [3]: 0.156 OD405
- binding result [4]: no binding (tested: 100 µg/ml)
- EC50 (read off the curve) [5]: ~0.03 µg/mL
- binding result [6]: no binding
B1: HuMab 002 Fc variant IgG1v1 (PVA-236; GLPSS331: E233P; L234V; L235A; delta G236; A327G; A330S; P331S) (antibody)
heavy: EVQLVESGGGLVRPGGSLRLSCAASGFTFSNYDMHWVRQATGKGLEWVSAITAAGDIYYPGSVKGRFTISRENAKNSLYLQMNSLRAGDTAVYYCARGRYSGSGSYYNDWFDPWGQGTLVTVSSASTKGPSVFPLAPSSKSTSGGTAALGCLVKDYFPEPVTVSWNSGALTSGVHTFPAVLQSSGLYSLSSVVTVPSSSLGTQTYICNVNHKPSNTKVDKKVEPKSCDKTHTCPPCPAPPVAGPSVFLFPPKPKDTLMISRTPEVTCVVVDVSHEDPEVKFNWYVDGVEVHNAKTKPREEQYNSTYRVVSVLTVLHQDWLNGKEYKCKVSNKGLPSSIEKTISKAKGQPREPQVYTLPPSRDELTKNQVSLTCLVKGFYPSDIAVEWESNGQPENNYKTTPPVLDSDGSFFLYSKLTVDKSRWQQGNVFSCSVMHEALHNHYTQKSLSLSPGK
light: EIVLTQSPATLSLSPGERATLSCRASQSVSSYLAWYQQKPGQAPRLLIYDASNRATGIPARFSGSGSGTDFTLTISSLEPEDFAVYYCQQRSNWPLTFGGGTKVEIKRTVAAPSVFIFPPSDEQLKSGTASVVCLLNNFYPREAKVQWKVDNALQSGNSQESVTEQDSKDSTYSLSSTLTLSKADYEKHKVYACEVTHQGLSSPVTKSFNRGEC
notes: copies: 2 + 2
